This note sets out measurements from the DeepSol protein solubility set.

The nature of this data set: soluble on expression in E. coli; label from the status in PepcDB or PDB records.
Regarding “MSSEPTSSIESDNLRRSKRKKFKLDFVAAAHGNNQKKSRKDPHGQGDDDDDTFDDDLNHFEPLSVLTEQDVSMEMFEDDEEDTVSRRRTRRSTAHFQDYQEPDRWIENSGPHACHKCPSRYESKSSLANHTKMHLGEKRKFACELCDFSASTLKSLTHHNNIHQNFGVLSQQTSPVIPVASSADSTLNSSINSTGCQINAPPAPKLDEEAPIAVESVVVHHEDVAEFDTTPPPILEREDDGPPVLIREAPVRKSNRPMKPTQKAQKMTKQRERKSKTVESPKGSLPSSSASSVTPPPVRKDVEKPKIFVKTTKKNLKKTMKITKVRQRCPHCPFTTSTVTRLNRHSGGHKLKEGYICPSENCNFMCRKAGFLQKHYILHKGTLPWPPEYVKKGGAKMKRTFPESEEKKIEVTEKVQKMKKMHKRRANTVQVVAKAQLKSYIKVEVDDVIFKKCNIGECEFLTQTLTQLIVHKVKTHDTKTAFPQHRFLCLTCGHRAKSYAALRTHKLIEHTSTHKRFHRTYYLKECVGDKFFVKYNLSKVQEEVKEEPKEADGDESGDESFDSMCPASDVHPETLAAIEMKDVFFCCNMCPYKAPTMNRCQRHYDKHFKNDEFKCQYCSWSSRSKEVIVNHEKLHPTVVVANTNEAPVVKNEIEAKVEVLSKTVSSPVECTEESSLSKSIQLWCQREKLRHPELDEQFTRKMIDGVKGFQCTDCPYTSKYRGDMRSHKKRHDIEQLYRCVQCTYTTNRPVSLKDHLKQHAIVNMSIADIKSRRVVVNQGVKIGMRRGVGKDKIYCCDKCPYVTLALGCLWRHHRNHRDTAKINICSNCSYSSIDQRKMEEHTIIHLGLGLNEAVPFVKRVDQKGRPVSSLTDLNSEKMNERKSTKRKMLDKVEKMEVGEDEEDDEESVDKGTDDGDYKQRPEKKRKQSSEEPASDPELFGSSSQPTRQLSERATRNRINYSLLSKNGSGKPTPSTSSANLEKLAGSSGGASSESPEPDESVEVSHWKIRTFLRSEYGVKESLKCPDCPYKSSEPDVLEKHRYYHMTKTTPRPYACSDCTFNTYTPTALLQHLKLHSEGVYFDPMVKKHMKHRKGDSIPPGVKGYYCKNCSFKTSIHRNFIEHSAYHRQQLINRINITLKRQPPRIEYQRPKLKHQFVAKNAKYCKKCTFKCVSQSNFIEHLDRHGWNQLYKCYSCDYSDNTKSVVDFHQLNHHIVKDQTLHSICQSAKFRLENGVIQIPETEKSKPTPDEFVSKTRGLLKCPSCEYFCHVSSELAFHMSVHHLTEPNARETISYLHMGLVPPKATVTTV”, the “soluble on expression in E. coli” value is reported as “not soluble”.

Turning to “MSSGKVIVYGGKGALGSAILEFFKKNGYTVLNIDLSANDQADSNILVDGNKNWTEQEQSILEQTASSLQGSQVDGVFCVAGGWAGGSASSKDFVKNADLMIKQSVWSSAIAAKLATTHLKPGGLLQLTGAAAAMGPTPSMIGYGMAKAAVHHLTSSLAAKDSGLPDNSAVLTIMPVTLDTPMNRKWMPNADHSSWTPLSFISEHLLKWTTETSSRPSSGALLKITTENGTSTITPQ”, the “soluble on expression in E. coli” value is reported as “soluble”.

Take “MSSGVMVDPDVQTSFQKLSEGRKEYRYIIFKIDENKVIVEAAVTQDQLGITGDDYDDSSKAAFDKFVEDVKSRTDNLTDCRYAVFDFKFTCSRVGAGTSKMDKIIFLQICPDGASIKKKMVYASSAAAIKTSLGTGKILQFQVSDESEMSHKELLNKLGEKYGDH”: the “soluble on expression in E. coli” value is given as “not soluble”.

With “MSSLGNQSEKNSNNKFSDNVPLAQHEIWKEKYESLVTEHENLVKEHETLIKTLELIEKHEITLEDLVKKKQREALVGKEEIEKFDKEIGERKKMQEMLDKDLEYLKSCEETVMNGMSSGPSGARVADKRNVNKFESQEGNFKCFLICV”, the “soluble on expression in E. coli” value is recorded as “not soluble”.

“MSSLLTIALAVTISCVNTVEDQYFGGQNAEPVAKVEQKATSNNTLADLEKDPLYPYIDKQNKLVEKNGIQYIENEENILVLANKDYSLQPTYTPPDLVRPNVTFSFGNEQVEKAQLRKEAGTALEEMFKAANQDGKKLFAVSGYRSYKRQQEVFQAEVNSKGDKKAREAVAYPGTSEHQTGLAMDISSENQSYELTEAFGTTPEGKWLEENAHNYGFILRYMKGREDITKYQYESWHYRYVGKDAATIIYKNNWTLEEFFEHVKALQKKVDAAK”: the “soluble on expression in E. coli” value was “not soluble”.

For “MSSNECFKCGRSGHWARECPTGGGRGRGMRSRGRGFQFVSSSLPDICYRCGESGHLAKDCDLQEDACYNCGRGGHIAKDCKEPKREREQCCYNCGKPGHLARDCDHADEQKCYSCGEFGHIQKDCTKVKCYRCGETGHVAINCSKTSEVNCYRCGESGHLARECTIEATA”, the “soluble on expression in E. coli” value is recorded as “not soluble”.

“MSSNHPLDQLYRQVIMDHYKNPRNRGVLEGTNVDVNMNNPTCGDRIHLTMKVEDGKVADVKFEGEGCSISMSSASMMTQAIKGKTVEEALRLAHIFSDMIQGKEYDDSVDLGDIEALQGVSKFPARIKCATLAWKALEKGLHNHEHEGR”: the “soluble on expression in E. coli” value is “not soluble”.

On to “MSSNLTSNEMSSTSAIVEPPEAVKGNERDKSTRRSTSQVVRPEKHEVENALEDQCSSSSLPKEAQYYAKLDKKLEGKDPRSQFYEAVRLSADIFAHKFEKAVCSRQTFEPTNSIIKVLNTAEEEMLHEKVVPLPVSSKLQYYLNRGRYDTIFDRDEQLQRTADPMADEPDHVEKRVTSILEQASREMEEGEVEPVFYDGSDEDQELPIDLGAMRNLQRTNKFAARSSRMAARRGGRPGYRGAFRGAARGAPSRRPAPAAEVAPETPVAAPMAPAAPAAPATPEAAPAAEVMDTSIATEMPQESAVDLSNVSAATEMDTSKEGEASRPTSEKKKKIRTTEMDRLMSMDLGPKDGGRVGELGHMWPESRRRPAAPLPETPAAQPRKSLPRRAAEKKKPEDSDAAEEQEVEMEVDNDASTSTPRNARGGRGGGNRRGSRRGQKRTSGGSGKLVEPKKEPVDEPAEKIPKRSEAAPEVPATATTKEAPPSTSSSPPDAPATPATPASSDSRDSPRKIRAMIFSLTGSPPESETPPVLQQEQVISTAAPTAGRHPNIIQQVPHINRIPPQPLRRLTAPQAPPASQPEEPPVQQTVPVVKVELASAPAPIVRDPQSTEPVPPAMPTLVENNHEATLILPPNKTSDYTRWNAQDLINWVRLLITNNVDSTIAIMVREEFDGETLACLVLDDDFRKEVPIPYGHYKKMKIYGTEVLNHYRTEKYQADLRKFHEELAAWKAQQR”, for which the “soluble on expression in E. coli” value is “not soluble”.

As for “MSSPDSAAHQFSICRVCDDSNGQPHYGTICCPSCKGFFRRVYMSDKKFECYRGNMCVIQKGTRNICRACRYKKCLQVGMNVKGSTTRHNLRINIYVQTSAESTPKSSKDTEMGVAEAMEMAQVYMNLEKYCENNYCESNMCREEENRLIDRMLSSTVHELIQKTSPQCPRFKRDWKPLEMLNLENFCRSWSRSIVHFLDFATRFPVFNQLSHIDKRAWFISRLAPCSFLTMAYQTRIEMCEGLLFGCSNVFPLKSDRWIAVETEHLRGLFSSITETMFSFVIYPMMNLKITDLHYSLLKACVFFSAGIVVTSVSDKGMEIMRNEYTKHKNALMKLLMNGVERFSQQTDILFQIQDVQNTLEHHKHLKSQQI”, the “soluble on expression in E. coli” value is recorded as “soluble”.

As for “MSSQPKLRILCLHGYRQCDQSFRQKTGSTRKLVKSLAEFEFVNGVHSVAVDEHVDSSRAWWFSNNEAMSFSSRESTEVAVGFEESVAAVVKFIEENGPFDGLLGFSQGASMVHLLIAKAQLGEIKLPGIRFAIFFSGFLSLSSKHDSLTLLRIKEFPSMHVFGDADEIVARPKSEKMADMFDVEPLRIAHDGGHVVPSMSKHKEKIAGFMREQLDRKIENN”, the “soluble on expression in E. coli” value was “not soluble”.

As for “MSSRKVSRAHYDEDELASAANMSLVAEGHFRGMKELLSTMDLDTDANTIPELKERAHMLCARFLGGAWKTVPLEHLRISRIKGGMSNMLFLCRLSEVYPPIRNEPNKVLLRVYFNPETESHLVAESVIFTLLSERHLGPKLYGIFSGGRLEEYIPSRPLSCHEISLAHMSTKIAKRVAKVHQLEVPIWKEPDYLCEALQRWLKQLTGTVDAEHRFDLPEECGVSSVNCLDLARELEFLRAHISLSKSPVTFCHNDLQEGNILLPKASSGNIRMPSLSDETQALGNSLSAFNPADPRLVLIDFEYASYNYRAFDFANHFIEWTIDYDIDEAPFYKIQTENFPENDQMLEFFLNYLREQGNTRENELYKKSEDLVQETLPFVPVSHFFWGVWGLLQVELSPVGFGFADYGRDRLSLYFKHKQLLKNLASHQ”, the “soluble on expression in E. coli” value is “soluble”.

For the sequence “MSSSNENAGKHSYLRSLISGLSSQGICAYVYASSGYGESSTDIVFTGKAFIAEAGEIVEEMERFRYEERMIISDIDVSRIQTERLINSSFKAAVTFHTHDEKFNQLPFKLRSRQESLPMTRRVLEHHHHHH”, the “soluble on expression in E. coli” value is “soluble”.
